Results taken from US20230312702A1 (KINDRED BIOSCIENCES, published 2023).
Values joined by “and” are separate entries in the source; they are usually repeats but may differ in a detail not shown here. Identical values can stand only once. One block for each binder: values may come before it.

Experiments:
[1] = molecular target: canine FcRn with a poly-His tag and canine B2M heterodimer complex (canine); assay: SPR (Biacore T200) at pH 6.0, biotinylated FcRn/B2M immobilised, Fc as analyte
[2] = molecular target: equine IL31 fused to human Fc (equine; human); assay: biolayer interferometry, biotinylated equine IL31 on the sensor, preliminary; biolayer interferometry, biotinylated equine IL31 on the sensor, preliminary; upper end of the range
[3] = molecular target: T1, Canine IL31 with C-terminal polyHis tag (canine, biotinylated at primary amine groups (NHS-LC-Biotin) or at glycan groups (Biotin-LC-Hydrazide)); assay: biolayer interferometry (Octet), canine IL31 (glycan-conjugated-biotin) on streptavidin tips, 100 nM antibody
T1 construct: the protein was collected from the supernatant of 293 or CHO-S cells; also called biotinylated canine IL31; canine IL31 (amine-conjugated-biotin); not shown: C-terminal poly-His tag
T1 chain: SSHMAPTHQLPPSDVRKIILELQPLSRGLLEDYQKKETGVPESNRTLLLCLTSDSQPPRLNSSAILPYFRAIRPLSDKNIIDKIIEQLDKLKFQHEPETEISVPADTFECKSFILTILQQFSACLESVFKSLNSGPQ
Experimental: (§1) The binding analysis was performed using a biosensor Octet as follows. Briefly, canine IL31 was biotinylated at primary amine groups using EZ-Link™ NHS-LC-Biotin (Thermo Scientific, Catalog No. 21336) or at glycan groups using EZ-Link™ Biotin-LC-Hydrazide (ThermoFisher Scientific, Catalog No. 21340) according to the manufacturer's instructions. The free unreacted biotin was removed from biotinylated IL31 by extensive dialysis. Biotinylated canine IL31 was captured on streptavidin sensor tips. The association of four different concentrations (400, 200, 66.6, and 33 nM) of chimeric and caninized M14 antibody and human and canine IL31 (amine-conjugated-biotin) and the association of 100 nM of caninized M14 antibody and canine IL31 (glycan-conjugated-biotin) was monitored for ninety seconds. Dissociation was monitored for 600 seconds. A buffer only blank curve was subtracted to correct for any drift. The data were fit to a 2:1 binding model using ForteBio™ data analysis software to determine the kₒₙ, koff, and the Kd. The buffer for dilutions and all binding steps was: 20 mM phosphate, 150 mM NaCl, pH 7.2.
(§2) Canine IL31 with C-terminal polyHis tag was expressed and purified from CHO-S cells. Human IL31 was obtained from Sino Biological and Streptavidin biosensors was obtained from ForteBio (Cat. #18-509).

[4] = molecular target: T1, Canine IL31 with C-terminal polyHis tag; assay: biolayer interferometry (Octet), canine IL31 (amine-conjugated-biotin) on streptavidin tips, 2:1 fit
Experimental: as §1, §2

GST_(A127-Q159) = molecular target: T2, GST_(A127-Q159); assay: immunoblot of GST-canine IL31 fusions expressed in E. coli, membrane probed with chimeric M14; anti-GST blot in Fig. 5B
T2 construct: also called 31.1KDa
T2 GST fusion protein: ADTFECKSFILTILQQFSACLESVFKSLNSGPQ
Description: (§3) To identify the canine IL31 epitope recognized by M14, multiple GST canine IL31 fragment fusion molecules were generated and proteins were expressed intracellularly in E. coli. After the GST fusion proteins were transferred to a membrane, chimeric M14 was used to probe the membrane. A positive signal resulted when the IL31 fragment contained the epitope.

GST_(S98-S144) = molecular target: T3, GST_(S98-S144); assay: as above
T3 construct: also called 34.5KDa
T3 GST fusion protein: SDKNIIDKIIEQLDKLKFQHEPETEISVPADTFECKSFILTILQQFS
Description: as §3

Sequence of canine FcRn with a poly-His tag and canine B2M heterodimer complex (canine) (chain, as listed by the source limits assumed, form in doubt, chain 1 of 2): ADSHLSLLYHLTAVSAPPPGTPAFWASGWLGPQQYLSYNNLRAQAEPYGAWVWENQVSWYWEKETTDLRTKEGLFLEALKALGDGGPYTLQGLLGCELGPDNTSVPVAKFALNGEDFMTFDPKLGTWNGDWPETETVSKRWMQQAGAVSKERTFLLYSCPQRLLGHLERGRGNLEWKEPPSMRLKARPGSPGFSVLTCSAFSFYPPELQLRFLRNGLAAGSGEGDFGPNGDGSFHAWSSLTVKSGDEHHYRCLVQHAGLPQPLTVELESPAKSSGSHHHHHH
Sequence of canine FcRn with a poly-His tag and canine B2M heterodimer complex (canine) (b2m, as listed by the source limits assumed, form in doubt, chain 2 of 2): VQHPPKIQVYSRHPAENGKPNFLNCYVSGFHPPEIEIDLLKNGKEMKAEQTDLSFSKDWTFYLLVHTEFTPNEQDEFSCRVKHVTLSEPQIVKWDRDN
Sequence of equine IL31 fused to human Fc (equine; human) (chain, as listed by the source limits assumed, form in doubt): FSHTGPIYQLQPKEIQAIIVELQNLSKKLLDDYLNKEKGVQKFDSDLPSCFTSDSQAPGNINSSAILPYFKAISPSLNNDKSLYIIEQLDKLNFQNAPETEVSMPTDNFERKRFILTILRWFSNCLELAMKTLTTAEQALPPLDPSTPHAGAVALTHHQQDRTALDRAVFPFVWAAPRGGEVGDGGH

koff [1]: 0.122 s⁻¹
B1: wild-type canine IgG-B Fc polypeptide (protein, not shown: small tags and cut ends)
chain: PAPEMLGGPSVFIFPPKPKDTLLIARTPEVTCVVVDLDPEDPEVQISWFVDGKQMQTAKTQPREEQFNGTYRVVSVLPIGHQDWLKGKQFTCKVNNKALPSPIERTISKARGQAHQPSVYVLPPSREELSKNTVSLTCLIKDFFPPDIDVEWQSNGQQEPESKYRTTPPQLDEDGSYFLYSKLSVDKSRWQRGDTFICAVMHEALHNHYTQESLSHSPGK

koff [1]: 0.241 s⁻¹
B2: variant canine IgG-B polypeptide L(23)S (protein, not shown: small tags and cut ends)
chain: PAPEMLGGPSVFIFPPKPKDTLSIARTPEVTCVVVDLDPEDPEVQISWFVDGKQMQTAKTQPREEQFNGTYRVVSVLPIGHQDWLKGKQFTCKVNNKALPSPIERTISKARGQAHQPSVYVLPPSREELSKNTVSLTCLIKDFFPPDIDVEWQSNGQQEPESKYRTTPPQLDEDGSYFLYSKLSVDKSRWQRGDTFICAVMHEALHNHYTQESLSHSPGK

koff [1]: 0.0138 s⁻¹
B3: variant canine IgG-B Fc polypeptide L(23)Y (protein, not shown: small tags and cut ends)
chain: PAPEMLGGPSVFIFPPKPKDTLYIARTPEVTCVVVDLDPEDPEVQISWFVDGKQMQTAKTQPREEQFNGTYRVVSVLPIGHQDWLKGKQFTCKVNNKALPSPIERTISKARGQAHQPSVYVLPPSREELSKNTVSLTCLIKDFFPPDIDVEWQSNGQQEPESKYRTTPPQLDEDGSYFLYSKLSVDKSRWQRGDTFICAVMHEALHNHYTQESLSHSPGK

koff [1]: 0.126 s⁻¹
B4: variant canine IgG-B Fc polypeptide L(23)M (protein, not shown: small tags and cut ends)
chain: PAPEMLGGPSVFIFPPKPKDTLMIARTPEVTCVVVDLDPEDPEVQISWFVDGKQMQTAKTQPREEQFNGTYRVVSVLPIGHQDWLKGKQFTCKVNNKALPSPIERTISKARGQAHQPSVYVLPPSREELSKNTVSLTCLIKDFFPPDIDVEWQSNGQQEPESKYRTTPPQLDEDGSYFLYSKLSVDKSRWQRGDTFICAVMHEALHNHYTQESLSHSPGK

koff [1]: 0.0631 s⁻¹ and 0.0847 s⁻¹
B5: variant canine IgG-B Fc polypeptide L(23)F (protein, not shown: small tags and cut ends)
chain: PAPEMLGGPSVFIFPPKPKDTLFIARTPEVTCVVVDLDPEDPEVQISWFVDGKQMQTAKTQPREEQFNGTYRVVSVLPIGHQDWLKGKQFTCKVNNKALPSPIERTISKARGQAHQPSVYVLPPSREELSKNTVSLTCLIKDFFPPDIDVEWQSNGQQEPESKYRTTPPQLDEDGSYFLYSKLSVDKSRWQRGDTFICAVMHEALHNHYTQESLSHSPGK

Kd [2]: < 50000 pM
B6: monoclonal antibody M14 (mouse antibody clone M14) (antibody, V domains shown)
VH: EVQLQESGPSLVKPSQTLSLTCSVTGDSITSGYWNWIRKFPGNKLEYMGYISYSGITDYNPSLKSRISITRDTSKNQYYLQLNSVTTEDTATYYCARYGNYGYAMDYWGQGTSVTVSS
VL: DIVLTQSPASLAVSLGQRATISCRASESVDTYGNSFMHWYQQKSGQSPKLLIYRASNLESGIPARFGGSGSRTDFTLTIDPVEADDVATYYCQQSYEDPWTFGGGTKLEIK

Kd [3]: < 1 pM
koff [3]: < 1e-07 s⁻¹
Kd [4]: < 10 pM
B7: caninized M14 IgG-B (antibody, V domains shown)
VH: EVQLVESGPSLVKPGGSLRLTCSVTGDSITSGYWNWIRKFPGNKLEYMGYISYSGITDYNPSLKSRITISRDTSKNQYYLQLNSVTTEDTATYYCARYGNYGYAMDYWGQGTLVTVSS
VL: DIVMTQSPASLSVSLGQRATISCRASESVDTYGNSFMHWYQQKPGQSPKLLIYRASNLESGIPARFGGSGSGTDFTLTIDPVQADDVATYYCQQSYEDPWTFGGGTKLEIKR
notes: Caninized M14 on canine IgG-B with canine light chain constant region; also called caninized M14 antibody

binding result (GST_(A127-Q159)): no binding
binding result (GST_(S98-S144)): no binding
B8: chimeric M14 (murine M14 VH and VL fused to canine IgG-B constant heavy chain and canine constant light chain) (antibody, V domains shown)
VH: EVQLQESGPSLVKPSQTLSLTCSVTGDSITSGYWNWIRKFPGNKLEYMGYISYSGITDYNPSLKSRISITRDTSKNQYYLQLNSVTTEDTATYYCARYGNYGYAMDYWGQGTSVTVSS
VL: DIVLTQSPASLAVSLGQRATISCRASESVDTYGNSFMHWYQQKSGQSPKLLIYRASNLESGIPARFGGSGSRTDFTLTIDPVEADDVATYYCQQSYEDPWTFGGGTKLEIKR
notes: expressed in CHO cells, Protein A purified; also called chimeric M14 antibody
